Laboratory results reported in patent publication US20200040059A1.

biological target: CTLA4 (human) (UniProt P16410); test: flow cytometry on HEK293 cells transfected with CTLA4
Sequence (P16410 36-223 limits assumed): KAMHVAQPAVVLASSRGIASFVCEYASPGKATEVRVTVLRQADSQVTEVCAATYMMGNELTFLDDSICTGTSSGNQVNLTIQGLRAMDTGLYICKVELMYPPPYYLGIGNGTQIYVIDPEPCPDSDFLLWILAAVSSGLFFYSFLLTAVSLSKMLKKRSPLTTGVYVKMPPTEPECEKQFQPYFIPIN

MFI at 66.6 nM [MFI]	Substance
105000	CD80 IgV-Fc M47I/E88D (from UniProt P33681 35-141) (Fc fusion)
8840	CD80 IgV-Fc S44P/A71D (from UniProt P33681 35-141) (Fc fusion)

biological target: CD112R (human) (UniProt Q6DKI7); test: flow cytometry, cells expressing target, 25 nM
Sequence (Q6DKI7 whole entry): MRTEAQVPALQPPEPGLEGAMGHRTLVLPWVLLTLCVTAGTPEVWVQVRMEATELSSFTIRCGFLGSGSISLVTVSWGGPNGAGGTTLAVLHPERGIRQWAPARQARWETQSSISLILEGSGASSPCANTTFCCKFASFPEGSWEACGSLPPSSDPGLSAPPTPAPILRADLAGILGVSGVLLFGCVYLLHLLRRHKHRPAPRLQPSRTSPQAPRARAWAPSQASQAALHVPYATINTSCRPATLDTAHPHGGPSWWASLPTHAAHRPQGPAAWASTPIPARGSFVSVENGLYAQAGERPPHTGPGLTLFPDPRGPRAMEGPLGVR

MFI at 25 nM [MFI]	Substance
854	CD155 variant IgV-Fc P18S, K70R, L79P, F91S, G111R (from UniProt P15151 24-139) (Fc fusion)
893	CD155 variant IgV-Fc V9L, V11M, P18S, N35S, S54G, Q62K, L79P, L104M, T107M, V115M (from UniProt P15151 24-139) (Fc fusion)

biological target: T1, CD226 (human) (UniProt Q15762); test: flow cytometry, cells expressing target, 25 nM
T1 sequence: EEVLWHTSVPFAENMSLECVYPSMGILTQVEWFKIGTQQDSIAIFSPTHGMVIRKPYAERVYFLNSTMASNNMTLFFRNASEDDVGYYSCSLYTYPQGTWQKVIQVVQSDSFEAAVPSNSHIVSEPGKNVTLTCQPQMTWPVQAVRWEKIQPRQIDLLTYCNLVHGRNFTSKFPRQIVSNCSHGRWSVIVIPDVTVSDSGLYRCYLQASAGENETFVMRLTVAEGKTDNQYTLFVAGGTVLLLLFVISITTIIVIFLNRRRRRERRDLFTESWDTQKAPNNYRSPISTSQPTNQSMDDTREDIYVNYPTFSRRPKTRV

MFI at 25 nM [MFI]	Substance
793	CD155 variant IgV-Fc P18S, K70R, L79P, F91S, G111R (from UniProt P15151 24-139) (Fc fusion)
2320	CD155 variant IgV-Fc V9L, V11M, P18S, N35S, S54G, Q62K, L79P, L104M, T107M, V115M (from UniProt P15151 24-139) (Fc fusion)

biological target: T2, TIGIT (human) (UniProt Q495A1); test: flow cytometry, cells expressing target, 25 nM
T2 sequence: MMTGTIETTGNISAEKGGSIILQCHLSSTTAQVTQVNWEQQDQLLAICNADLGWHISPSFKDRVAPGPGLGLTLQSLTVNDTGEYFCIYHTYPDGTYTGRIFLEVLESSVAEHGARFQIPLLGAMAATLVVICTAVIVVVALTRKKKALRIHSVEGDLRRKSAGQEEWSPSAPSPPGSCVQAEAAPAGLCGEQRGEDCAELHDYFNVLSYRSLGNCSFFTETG

MFI at 25 nM [MFI]	Substance
16200	CD155 variant IgV-Fc P18S, K70R, L79P, F91S, G111R (from UniProt P15151 24-139) (Fc fusion)
3000	CD155 variant IgV-Fc V9L, V11M, P18S, N35S, S54G, Q62K, L79P, L104M, T107M, V115M (from UniProt P15151 24-139) (Fc fusion)

biological target: T3, CD96 (UniProt P40200); test: flow cytometry, cells expressing target, 25 nM
T3 sequence (looked up): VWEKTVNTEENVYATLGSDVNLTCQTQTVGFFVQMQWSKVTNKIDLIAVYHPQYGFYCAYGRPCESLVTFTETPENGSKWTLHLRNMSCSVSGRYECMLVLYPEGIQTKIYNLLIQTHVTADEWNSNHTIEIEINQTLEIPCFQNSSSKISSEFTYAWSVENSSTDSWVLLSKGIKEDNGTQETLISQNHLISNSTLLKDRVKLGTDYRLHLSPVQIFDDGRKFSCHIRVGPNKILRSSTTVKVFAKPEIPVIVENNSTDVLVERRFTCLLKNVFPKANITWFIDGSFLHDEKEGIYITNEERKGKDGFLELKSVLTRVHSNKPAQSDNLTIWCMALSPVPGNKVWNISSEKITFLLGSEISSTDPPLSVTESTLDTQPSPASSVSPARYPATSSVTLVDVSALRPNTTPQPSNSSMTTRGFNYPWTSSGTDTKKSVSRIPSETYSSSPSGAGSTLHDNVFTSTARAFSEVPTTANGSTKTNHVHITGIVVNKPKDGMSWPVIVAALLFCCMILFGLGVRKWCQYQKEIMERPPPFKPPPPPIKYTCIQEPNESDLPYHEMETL

MFI at 25 nM [MFI]	Substance
1180	CD155 variant IgV-Fc P18S, K70R, L79P, F91S, G111R (from UniProt P15151 24-139) (Fc fusion)
925	CD155 variant IgV-Fc V9L, V11M, P18S, N35S, S54G, Q62K, L79P, L104M, T107M, V115M (from UniProt P15151 24-139) (Fc fusion)

biological target: PD-L1 (human) (UniProt Q9NZQ7); test: flow cytometry on HEK293 cells transfected with PD-L1
Sequence (Q9NZQ7 19-290 limits assumed): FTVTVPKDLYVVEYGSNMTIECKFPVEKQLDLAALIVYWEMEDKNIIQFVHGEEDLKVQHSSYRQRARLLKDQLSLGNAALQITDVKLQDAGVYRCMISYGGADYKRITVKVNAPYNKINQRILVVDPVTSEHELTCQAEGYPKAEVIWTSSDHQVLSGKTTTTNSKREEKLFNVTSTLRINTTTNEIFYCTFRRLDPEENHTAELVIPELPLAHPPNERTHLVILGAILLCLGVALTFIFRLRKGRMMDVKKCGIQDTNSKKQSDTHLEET

MFI at 22.2 nM [MFI]	Substance
97700	CD80 IgV-Fc M47I/E88D (from UniProt P33681 35-141) (Fc fusion)
6310	CD80 IgV-Fc S44P/A71D (from UniProt P33681 35-141) (Fc fusion)
33400	CD80 IgV-Fc V22I/L70M/A71D (from UniProt P33681 35-141) (Fc fusion)
2420	CD80 IgV-Fc E35D/T57I/L70Q/A71D (from UniProt P33681 35-141) (Fc fusion)
5530	CD80 IgV-Fc P51A/A71D (from UniProt P33681 35-141) (Fc fusion)

biological target: PD-1 (Homo sapiens (Human)) (UniProt Q15116); test: flow cytometry, cells expressing PD-1

Substance	MFI at 20 nM
Fc Control	59
variant PD-L1 ECD-Fc I36T, M97L, Q155H, F193S, N201Y (Fc fusion)	69
variant PD-L1 ECD-Fc M18V, M97L, F193S, R195G, E200K, H202Q (from UniProt Q9NZQ7 19-238) (Fc fusion)	69
variant PD-L1 ECD-Fc K28I, S99G (Fc fusion)	830
variant PD-L1 ECD-Fc Y10F, M18V, S99G, Q138R, T203A (from UniProt Q9NZQ7 19-238) (Fc fusion)	70
variant PD-L1 ECD-Fc I36T, I83T, M97L, K144E, P198T (Fc fusion)	62
CTLA4-Fc (Fc fusion)	59
variant PD-L1 ECD-Fc G15A, I36T, M97L, K111E, H202Q (from UniProt Q9NZQ7 19-238) (Fc fusion)	112

The remaining lines, values ahead:

MFI at 20 nM	Substance
114	variant PD-L1 ECD-Fc G15A, I36T, V129D (from UniProt Q9NZQ7 19-238) (Fc fusion)
120	variant PD-L1 ECD-Fc I36T, M97L, A103V, Q155H (from UniProt Q9NZQ7 19-238) (Fc fusion)
125	variant PD-L1 ECD-Fc G15A, I36T, V129D, R195G (from UniProt Q9NZQ7 19-238) (Fc fusion)
104	variant PD-L1 ECD-Fc M18I, I36T, E53G, M97L, K144E, E199G, V207A (from UniProt Q9NZQ7 19-238) (Fc fusion)
3500	variant PD-L1 ECD-Fc I36S, M41K, M97L, K144Q, R195G, E200K, H202Q, L206F (Fc fusion)
190	variant PD-L1 ECD-Fc L35P, I36S, M97L, K111E (from UniProt Q9NZQ7 19-238) (Fc fusion)

biological target: CD80 (Homo sapiens (Human)) (UniProt P33681); test: flow cytometry, cells expressing CD80

Substance	MFI at 20 nM
Fc Control	132
variant PD-L1 ECD-Fc I36T, M97L, Q155H, F193S, N201Y (Fc fusion)	1250
variant PD-L1 ECD-Fc K28I, S99G (Fc fusion)	693
variant PD-L1 ECD-Fc Y10F, M18V, S99G, Q138R, T203A (from UniProt Q9NZQ7 19-238) (Fc fusion)	412
variant PD-L1 ECD-Fc I36T, I83T, M97L, K144E, P198T (Fc fusion)	6220
CTLA4-Fc (Fc fusion)	200000

The next lines start with the values.

MFI at 20 nM	Substance
136	variant PD-L1 ECD-Fc G15A, I36T, V129D (from UniProt Q9NZQ7 19-238) (Fc fusion)
128	variant PD-L1 ECD-Fc I36T, M97L, A103V, Q155H (from UniProt Q9NZQ7 19-238) (Fc fusion)
47400	variant PD-L1 ECD-Fc M18I, I36T, E53G, M97L, K144E, E199G, V207A (from UniProt Q9NZQ7 19-238) (Fc fusion)
68700	variant PD-L1 ECD-Fc I36S, M41K, M97L, K144Q, R195G, E200K, H202Q, L206F (Fc fusion)
155	variant PD-L1 ECD-Fc L35P, I36S, M97L, K111E (from UniProt Q9NZQ7 19-238) (Fc fusion)

biological target: CD28 (human) (UniProt P10747); test: flow cytometry on HEK293 cells transfected with CD28

MFI at 66.6 nM [MFI]	Substance
7340	CD80 IgV-Fc M47I/E88D (from UniProt P33681 35-141) (Fc fusion)
2740	CD80 IgV-Fc S44P/A71D (from UniProt P33681 35-141) (Fc fusion)
22800	CD80 IgV-Fc V22I/L70M/A71D (from UniProt P33681 35-141) (Fc fusion)
21300	CD80 IgV-Fc E35D/T57I/L70Q/A71D (from UniProt P33681 35-141) (Fc fusion)
4260	CD80 IgV-Fc P51A/A71D (from UniProt P33681 35-141) (Fc fusion)
